Tested on: MS2 coat protein
Test: apparent KD of MS2 coat protein; designed switch direction (-1 OFF switch, 1 ON switch): -1; higher = weaker reporter binding
How it was run: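 Each step of the titration lasted 0.8–1.5 h at the lowest concentration and 10–20 min at the highest. The protein, SNAP-549-labelled MS2 coat protein, went from 0.7 or 1.5 nM doubling to 3 µM over RNA switches transcribed on Illumina chips by stalled E. coli RNA polymerase. Normalised cluster fluorescence was curve-fitted, and the per-design median over clusters is given as apparent KD.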

[1] = Eterna round: R95, input ligand: FMN 200 uM
[2] = Eterna round: R95, input ligand: microRNA oligo, concentration not stated
[3] = Eterna round: R95, input ligand: none
[4] = input ligand: microRNA oligo, concentration not stated

Row | Sequence | apparent KD of MS2 coat protein (input ligand: FMN 200 uM) [nM] | apparent KD of MS2 coat protein (input ligand: none) [nM] | apparent KD of MS2 coat protein [1] [nM] | apparent KD of MS2 coat protein [2] [nM] | apparent KD of MS2 coat protein [3] [nM] | apparent KD of MS2 coat protein [4] [nM]
1 | GUUAAUUGUCACAUGGGUGACAUGAGGAUCACCCAUGUCACAAGCUUUUUGUUCGUCUUAUAAUUAACCCAUGUGAC [Stov1/12-B2] (Eterna round: R97, puzzle: Sensor, turn-off variant 1) | 16 | 14.4 | – | – | – | –
2 | GUUAGACAUGAGGAUCACCCAUGUGAGGAUAUGAUGAGAAUGAAGUAAGAAGUAGGAAUCAGAAGGCACAUAUG [Mat - Mod of Hyphema D31] (puzzle: Exclusion 1) | – | – | 177 | 106 | 132 | –
3 | GUUUUAUAUGAAGGAUAUACUUAACAUGAGGAUCACCCAUGUGGUGUUGUGAGUGAGUGAGUUUAGUAGAAGGUCAAUGAUUUU [JMF's solution 77] (Eterna round: R96, puzzle: Exclusion NG 2) | 1660 | 473 | – | – | – | 396
4 | UAAAACAGAGGAUAUCGCUUGGUAAACAUGAGGAUCACCCAUGUGGUCUCGGUGGAUACCCGAGAAGGCUGAGCGU [Xeraisbece] (Eterna round: R97, puzzle: Exclusion 5) | 19.5 | 19 | – | – | – | –
5 | UAAAACUGAGGAUAUACAUGAGGAUCACCCAUGUCAAUUGACAGCGGCGUGGCAAAAGGUAGAAGGCAGGCGGU [Lerete] (puzzle: Exclusion 3) | – | – | 43 | 176 | 161 | –
6 | UAAAAGGUAGGAUAUACGAAAAAAAAGGGUAGAAAAAAAACACAUGAGGAUCACCCAUGUAGAAGGACCAAAAA [salish99_ex2_r3_049] (puzzle: Exclusion 2) | – | – | 137 | 38.4 | 38 | –
7 | UAAACAAGCUUAAGAUCCUACAUGAGGAUCACCCAUGUGCUCGUCUUGUAACGUACUGUGACGAAAGUCACGGUACG [JL TOV1 3.09] (Eterna round: R97, puzzle: Sensor, turn-off variant 1) | 185 | 228 | – | – | – | –
8 | UAAAGUCAAGGAUAUGGAAGUCCAAACAUGAGGAUCACCCAUGUAAACACAUUGGGAAGCCCAGAAGGUGGCCGUA [Eternabot (L2) Solution 31] (Eterna round: R97, puzzle: Exclusion 5) | 76.4 | 204 | – | – | – | –
9 | UAACAGUAAGGAUAUCCAGAUCCAGACAUGAGGAUCACCCAUGUCAAAUACCUUUGACACGGAGAAGGUACGAAAA [EX5 A.26] (Eterna round: R97, puzzle: Exclusion 5) | 53.2 | 51.9 | – | – | – | –
10 | UAACUACAUGAGGAUCACCCAUGUCAGGAUAUGCCAUUAAAUUAACAUCAACAUACGGGUAGAAGGGACAACGU [1st #2] (Eterna round: R97, puzzle: Exclusion 1) | 22.2 | 25.6 | – | – | – | –
11 | UAACUUCUUGUAAGGAUAUUGGCGCGAAAGCGAACCGAGAAGGUACAUGAGGAUCACCCAUGUGAAAUAAGAAU [Mod of Zala 14 - Jieux - Brourd's Mod of Exclusion 4] (Eterna round: R97, puzzle: Brourd's mod of Exclusion 4) | 574 | 40.3 | – | – | – | –
12 | UAAUAGGCAGGAUAUACAUGAGGAUCACCCAUGUAAAUUUUUCGUUUAACUUGAAUGUGUAGAAGGGCCAUAAA [Ex3 #53] (Eterna round: R97, puzzle: Exclusion 3) | 20.6 | 22.6 | – | – | – | –
13 | UAAUGUAUAUAGGAUAUCUAGCUGGAAACAGCUAGAGAAGGAUGUACAUGAGGAUCACCCAUGUAAAUCAGUGA [Ex6/14-B1] (Eterna round: R97, puzzle: Exclusion 6) | 239 | 55.4 | – | – | – | –
14 | UAAUUAAGUGUGAGGAUAUGCUGGUCCUUGGAUCAGCAGAAGGCACAUGAGGAUCACCCAUGUAAUUUAUUUAU [JL bmx4 3.10] (puzzle: Brourd's mod of Exclusion 4) | – | – | – | 78.5 | – | –
15 | UACAAGCUUUUAAGAUCCUACAUGAGGAUCACCCAUGUGCUCGUCUUGUAACGUACUGUGACGAAAGUCACGGUACG [JL TOV1 3.22] (Eterna round: R97, puzzle: Sensor, turn-off variant 1) | 206 | 220 | – | – | – | –
16 | UACAAUGCUUUUGUAAGGUACAUGAGGAUCACCCAUGUCUCGCAAAGGCUUGAUUAUCACGUACGCGCUUGUCUUGU [Eternabot (L1) Solution 17] (Eterna round: R97, puzzle: Sensor, turn-off variant 1) | 14.3 | 12.2 | – | – | – | –
17 | UACACUGCAUGAGGAUCAAACAUGAGGAUCACCCAUGUAUAGCAGGCUUUUUGUACGUCUUAUAAUUAUGUAGUGUA [Electric Eye 16 - Jieux - Sensor, turn-off variant 1] (Eterna round: R97, puzzle: Sensor, turn-off variant 1) | 15.9 | – | – | – | – | –
18 | UACACUGCAUGAGGAUCAAACAUGAGGAUCACCCAUGUAUAGCAGGCUUUUUGUGCGUCUUAUAAUUAUGUAGUGUA [Electric Eye 18 - Jieux - Sensor, turn-off variant 1] (Eterna round: R97, puzzle: Sensor, turn-off variant 1) | 14.9 | 15.3 | – | – | – | –
19 | UACAUACGUCGAUCGAAAGACAUGAGGAUCACCCAUGUACGAUGUCAACGUCAAAUCCAAGUAUUUUGCUCUCGUCA [Eternabot (L2) Solution 32] (Eterna round: R97, puzzle: Sensor, turn-off variant 1) | 15.6 | 16.1 | – | – | – | –
20 | UACAUGAGGAUCACCCAUGUCUUUUCGUGUAUGGUACCCAUCUAGGAUAUCGUGUUAUUUAACCACGAGAAGGAGAGUAUCAAU [MOD5 Solution 21 by JMF] (Eterna round: R96, puzzle: Exclusion NG 3) | 65.6 | 66.5 | – | – | – | 55.9
21 | UACAUGAGGAUCACCCAUGUUUUGUCGUGUAUGGUAUUUAUCUAGGAUAUCAAGUUAUUUAAUUAUGAGAAGGAGAAUAUUAAU [JMF's solution 34] (Eterna round: R96, puzzle: Exclusion NG 3) | 32.8 | 34.5 | – | – | – | 26.6
22 | UACAUGAGGAUCACCCAUGUUUUGUCGUGUAUGGUAUUUAUCUAGGAUAUCAAGUUGUUUAUUUAUGAGAAGGAGAAUAUUAAU [JMF's solution 27] (Eterna round: R96, puzzle: Exclusion NG 3) | – | – | – | – | – | 28.8
23 | UACAUGAGGAUCACCCAUGUUUUGUCGUGUAUGGUAUUUAUCUAGGAUAUCAAUCUAUUUAUUUAUGAGAAGGAGAAUAUUAAU [JMF's solution 13] (Eterna round: R96, puzzle: Exclusion NG 3) | 39.6 | 42.3 | – | – | – | 25.7
24 | UACAUGAGGAUCACCCAUGUUUUGUCGUGUAUGGUAUUUAUCUAGGAUAUCAAUUGAUUUAUUUAUGAGAAGGAGAAUAUUAAU [JMF's solution 15] (Eterna round: R96, puzzle: Exclusion NG 3) | 42.5 | 39.5 | – | – | – | 26.8
25 | UACAUGAGGAUCACCCAUGUUUUGUCGUGUAUGGUAUUUAUCUAGGAUAUCAAUUUAGUCAUUUAUGAGAAGGAGAAUAUUAAU [JMF's solution 74] (Eterna round: R96, puzzle: Exclusion NG 3) | 35.5 | 38.4 | – | – | – | 28.6
26 | UACAUGAGGAUCACCCAUGUUUUGUCGUGUAUGGUAUUUAUCUAGGAUAUCAAUUUGUUUAAUUAUGAGAAGGAGAAUAUUAAU [JMF's solution 70] (Eterna round: R96, puzzle: Exclusion NG 3) | 34.3 | 35.6 | – | – | – | 25.8
27 | UACAUGAGGAUCACCCAUGUUUUGUCGUGUAUGGUAUUUAUCUAGGAUAUCAUUCUAUUUAGUUAUGAGAAGGAGAAUAUUAAU [JMF's solution 84] (Eterna round: R96, puzzle: Exclusion NG 3) | – | – | – | – | – | 21.1
28 | UACAUGAGGAUCACCCAUGUUUUGUCGUGUAUGGUAUUUAUCUAGGAUAUCAUUUUAUUAAGUUAUGAGAAGGAGAAUAUUAAU [JMF's solution 90] (Eterna round: R96, puzzle: Exclusion NG 3) | 34.8 | 32.3 | – | – | – | 24.9
29 | UACAUGAGGAUCACCCAUGUUUUGUCGUGUAUGGUAUUUAUCUAGGAUAUCAUUUUAUUGAGUUAUGAGAAGGAGAAUAUUAAU [JMF's solution 91] (Eterna round: R96, puzzle: Exclusion NG 3) | 39.8 | 32.3 | – | – | – | 28.5
